From patent US20110082285A1 (STAIDSON BEIJING PHARMACEUTICAL, published 2011)

Biological target: T1, P75 (UniProt P08138 29-427)
T1 construct: whole, on cells
T1 sequence (looked up): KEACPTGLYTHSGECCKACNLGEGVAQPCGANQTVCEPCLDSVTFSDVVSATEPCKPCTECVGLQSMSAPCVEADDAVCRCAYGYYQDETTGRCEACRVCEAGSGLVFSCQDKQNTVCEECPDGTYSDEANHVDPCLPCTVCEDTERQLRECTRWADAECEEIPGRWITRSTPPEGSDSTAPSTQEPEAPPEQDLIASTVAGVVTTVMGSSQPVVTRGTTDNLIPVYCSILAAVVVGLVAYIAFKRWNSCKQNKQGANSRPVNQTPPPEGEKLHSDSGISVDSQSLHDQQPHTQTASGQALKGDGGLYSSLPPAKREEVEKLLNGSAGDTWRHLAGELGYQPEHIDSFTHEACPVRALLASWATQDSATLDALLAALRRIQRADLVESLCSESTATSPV
Assay: I^125-labeled ligand crosslinked to A875 tumor cells expressing P75, immunoprecipitation, SDS-PAGE, autoradiography
Description: The WT mouse NGF and mutant NGF was labeled with I¹²⁵, then added to both the cells expressing TrkA and the A875 tumor cells expressing P75. The ligand and receptor were crosslinked by N-hydroxysuccinimidyl-4-azidobenzoate, the cells were lysed, and the cross-linked complex was immunoprecipitated overnight at 4° C.

B1: mutant NGF (mouse NGF-β mature peptide with Lys32, Lys34 and Glu35 changed to Ala) (ligand)
chain: SSTHPVFHMGEFSVCDSVSVWVGDKTTATDIAGAAVTVLAEVNINNSVFRQYFFETKCRASNPVESGCRGIDSKHWNSYCTTTHTFVKALTTDEKQAAWRFIRIDTACVCVLSRKATRRG
modifications: Labelled with I^125 (labelled residues not stated). Disulfide-bonded monomer; NGF-β acts as a non-covalent homodimer, one chain given.
notes: also called mutant NGF-β; NGF mutant
B1: no binding.
